Target: GM130 (UniProt Q08379)
Experiment: co-IP of GM130 with GFP-HOOK3
Conditions: reference: wild type

| Substance | binding against the reference (sites S238) | binding against the reference (sites S707) |
| --- | --- | --- |
| HOOK3 (from UniProt Q86VS8) S238A | weaker | – |
| HOOK3 (from UniProt Q86VS8) S707A | – | weaker |

Reference: PMC8215223
